Reference: US20170119913A1
Numbered stars: 1 amine (or outer) side, 2 acyl side, 3 side chain; on linkers, the order of the positions; unused ones are H or OH. Square brackets hold non-standard residues; d marks the D form. * marks the point of attachment. DOTA = O=C(O)CN1CCN(CC(=O)O)CCN(CC(=O)*)CCN(CC(=O)O)CC1; Ttds = O=C(CCC(=O)[*:2])NCCCOCCOCCOCCCN[*:1]; Glutaryl = O=C(CCCC(=O)[*:2])[*:1]; Tle = CC(C)(C)[C@H](N)C(=O)O; 1206 = not defined here; GABA = NCCCC(=O)O

Columns and labels:
[1] = molecular target: neurotensin receptor 1 (NTR1), human, prepared from CHO cells recombinantly expressing the human receptor (human) (UniProt P30989); assay: radioligand binding assay (Cerep 0109): displacement of 0.05 nM 125I-(Tyr3-neurotensin) from human NTR1 prepared from CHO cells
Chain of neurotensin receptor 1 (NTR1), human, prepared from CHO cells recombinantly expressing the human receptor (human) (P30989 whole entry): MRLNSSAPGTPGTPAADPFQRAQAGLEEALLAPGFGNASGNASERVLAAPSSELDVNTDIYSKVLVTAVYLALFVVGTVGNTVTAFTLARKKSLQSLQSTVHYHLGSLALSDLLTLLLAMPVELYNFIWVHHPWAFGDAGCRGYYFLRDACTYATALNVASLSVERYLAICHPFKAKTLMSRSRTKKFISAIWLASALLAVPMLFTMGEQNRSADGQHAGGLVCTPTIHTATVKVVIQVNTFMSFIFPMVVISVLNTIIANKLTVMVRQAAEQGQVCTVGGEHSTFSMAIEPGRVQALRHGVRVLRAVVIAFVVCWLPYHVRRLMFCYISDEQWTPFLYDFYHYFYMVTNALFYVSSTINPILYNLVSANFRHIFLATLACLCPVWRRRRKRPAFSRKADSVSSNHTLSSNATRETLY

[2] = molecular target: NTR1 on HT29 or NTR1-expressing HEK293 cells (UniProt P30989); assay: cell-based or functional assay
Chain of NTR1 on HT29 or NTR1-expressing HEK293 cells (P30989 whole entry): as above

[3] = molecular target: T1, delta 2 (DOP) (h), delta2 opioid receptor (human (printed as (h))), P41143; assay: Cerep ExpresSProfile radioligand competition binding, reference compound (agonist radioligand)
T1 chain: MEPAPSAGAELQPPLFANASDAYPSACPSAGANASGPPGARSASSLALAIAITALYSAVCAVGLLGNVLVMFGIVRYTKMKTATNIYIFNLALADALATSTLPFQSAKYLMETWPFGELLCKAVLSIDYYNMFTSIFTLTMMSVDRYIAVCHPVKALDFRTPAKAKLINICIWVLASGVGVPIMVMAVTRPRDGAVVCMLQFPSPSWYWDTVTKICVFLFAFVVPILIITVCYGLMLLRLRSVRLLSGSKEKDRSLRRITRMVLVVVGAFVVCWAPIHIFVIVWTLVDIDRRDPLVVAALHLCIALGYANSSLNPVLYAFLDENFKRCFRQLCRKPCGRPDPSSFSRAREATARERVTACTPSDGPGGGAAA

{1206-Glutaryl}-[Ttds]K(DOTA)[Ttds][GABA]RRPY[Tle]L-OH (reading uncertain) [1206-Glutar-Ttds-Lys(DOTA)-Ttds-GABA-Arg-Arg-Pro-Tyr-Tle-Leu-OH (16)] showed an IC50 [1] of 0.14 nM, an Agonistic Effect EC50 [nM], functional Ca2+ mobilisation assay [2] of 4 nM and an Antagonistic Effect IC50 [nM], functional Ca2+ mobilisation assay [2] of 3.8 nM.

With YCGFC (modifications not checked) [DPDPE] the Ki [3] was 2 nM.

Work on {1206-Glutaryl}-[Ttds]K(DOTA)[Ttds][GABA][dR]RPY[Tle]L-OH (reading uncertain) [1206-Glutar-Ttds-Lys(DOTA)-Ttds-GABA-arg-Arg-Pro-Tyr-Tle-Leu-OH (17)] yielded an IC50 [1] of 0.32 nM, an Agonistic Effect EC50 [nM], functional Ca2+ mobilisation assay [2] of 7 nM and an Antagonistic Effect IC50 [nM], functional Ca2+ mobilisation assay [2] of 3.4 nM.

For {1206-Glutaryl}-[Ttds][Ttds][Ttds]K(DOTA)[Ttds][Ttds][Ttds][GABA][dR]RPY[Tle]L-OH (reading uncertain) [1206-Glutar-Ttds3-Lys(DOTA)-Ttds3-GABA-arg-Arg-Pro-Tyr-Tle-Leu-OH (18)], the IC50 [1] was 2.7 nM, the Agonistic Effect EC50 [nM], functional Ca2+ mobilisation assay [2] was greater than 50000 nM and the Antagonistic Effect IC50 [nM], functional Ca2+ mobilisation assay [2] was 3.8 nM.
